Changes are numbered by the printed parent chain. Numbers in names are those of the source.
T1: N-terminally Flag-tagged POLD1 C1076S (human, UniProt P28340 1-1107, C1076S)
T1 construct: DNA polymerase delta catalytic subunit POLD1/p125, human; variant made by site-directed mutagenesis; also called CS; Pol δ-CS (bait subunit); source: Sf9 insect cells, baculovirus co-infection, in lysate; Flag-purified (Flag-M2 agarose, 3x Flag peptide elution); not shown: Flag, N-terminal, kept
T1 sequence (looked up): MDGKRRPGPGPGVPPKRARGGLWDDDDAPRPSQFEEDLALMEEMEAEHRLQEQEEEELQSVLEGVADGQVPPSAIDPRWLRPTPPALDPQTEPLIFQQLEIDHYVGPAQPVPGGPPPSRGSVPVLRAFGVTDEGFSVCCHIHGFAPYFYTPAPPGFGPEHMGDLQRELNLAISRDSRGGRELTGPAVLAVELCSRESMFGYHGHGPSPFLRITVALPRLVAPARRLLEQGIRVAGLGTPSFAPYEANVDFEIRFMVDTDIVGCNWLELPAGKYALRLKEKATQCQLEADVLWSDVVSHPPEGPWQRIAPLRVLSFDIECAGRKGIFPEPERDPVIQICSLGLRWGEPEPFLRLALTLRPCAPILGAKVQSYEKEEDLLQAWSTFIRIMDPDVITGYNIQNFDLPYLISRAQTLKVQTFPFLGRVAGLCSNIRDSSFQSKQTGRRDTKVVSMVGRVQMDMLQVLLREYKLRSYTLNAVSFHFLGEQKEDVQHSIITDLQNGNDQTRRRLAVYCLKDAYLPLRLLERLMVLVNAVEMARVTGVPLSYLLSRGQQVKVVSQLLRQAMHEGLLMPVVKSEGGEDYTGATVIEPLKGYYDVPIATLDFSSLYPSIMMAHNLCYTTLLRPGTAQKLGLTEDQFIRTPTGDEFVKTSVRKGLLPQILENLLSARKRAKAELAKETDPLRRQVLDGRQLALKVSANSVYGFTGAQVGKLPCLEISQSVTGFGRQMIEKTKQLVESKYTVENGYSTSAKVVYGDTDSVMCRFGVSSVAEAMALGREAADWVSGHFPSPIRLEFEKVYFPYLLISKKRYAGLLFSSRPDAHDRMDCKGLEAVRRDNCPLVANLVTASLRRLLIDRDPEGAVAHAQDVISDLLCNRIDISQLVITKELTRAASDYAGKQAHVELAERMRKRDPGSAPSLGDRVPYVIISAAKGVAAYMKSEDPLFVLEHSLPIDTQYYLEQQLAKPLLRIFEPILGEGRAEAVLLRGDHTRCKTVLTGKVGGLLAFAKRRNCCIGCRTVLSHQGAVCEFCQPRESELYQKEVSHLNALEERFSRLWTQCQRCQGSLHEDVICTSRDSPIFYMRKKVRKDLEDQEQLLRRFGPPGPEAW

T2: N-terminally Flag-tagged POLD1 (catalytic subunit of human DNA polymerase delta), wild type (human, UniProt P28340 1-1107)
T2 construct: DNA polymerase delta catalytic subunit POLD1/p125, human; also called p125; Flag-POLD1; source: Sf9 insect cells, baculovirus co-infection, in lysate; Flag-purified (Flag-M2 agarose, 3x Flag peptide elution); not shown: Flag, N-terminal, kept
T2 sequence (looked up): T1 sequence (looked up) with S1076C

B1: POLD2 (accessory subunit of human DNA polymerase delta), untagged (natural protein)
chain: not shown
notes: DNA polymerase delta subunit 2 POLD2/p50, human; Expressed from a cassette with self-cleaving T2A peptides; A T2A remnant probably stays on its C-terminus (my surmise); also called p50; source: Sf9 insect cells, baculovirus co-infection (POLD2-T2A-POLD3-T2A-POLD4 or POLD2-T2A-POLD3 cassette), in lysate; co-purified with Flag-POLD1
B2: POLD3 (accessory subunit of human DNA polymerase delta), untagged (natural protein, UniProt Q15054 1-466, looked up)
chain: MADQLYLENIDEFVTDQNKIVTYKWLSYTLGVHVNQAKQMLYDYVERKRKENSGAQLHVTYLVSGSLIQNGHSCHKVAVVREDKLEAVKSKLAVTASIHVYSIQKAMLKDSGPLFNTDYDILKSNLQNCSKFSAIQCAAAVPRAPAESSSSSKKFEQSHLHMSSETQANNELTTNGHGPPASKQVSQQPKGIMGMFASKAAAKTQETNKETKTEAKEVTNASAAGNKAPGKGNMMSNFFGKAAMNKFKVNLDSEQAVKEEKIVEQPTVSVTEPKLATPAGLKKSSKKAEPVKVLQKEKKRGKRVALSDDETKETENMRKKRRRIKLPESDSSEDEVFPDSPGAYEAESPSPPPPPSPPLEPVPKTEPEPPSVKSSSGENKRKRKRVLKSKTYLDGEGCIVTEKVYESESCTDSEEELNMKTSSVHRPPAMTVKKEPREERKGPKKGTAALGKANRQVSITGFFQRK
notes: DNA polymerase delta subunit 3 POLD3/p66, human; Expressed from a cassette with self-cleaving T2A peptides; T2A remnants probably stay on its ends and differ between the two cassettes (my surmise); also called p66; source: Sf9 insect cells, baculovirus co-infection (POLD2-T2A-POLD3-T2A-POLD4 or POLD2-T2A-POLD3 cassette), in lysate; co-purified with Flag-POLD1
B3: POLD4 (accessory subunit of human DNA polymerase delta), untagged (natural protein, UniProt Q9HCU8 1-107, looked up)
chain: MGRKRLITDSYPVVKRREGPAGHSKGELAPELGEEPQPRDEEEAELELLRQFDLAWQYGPCTGITRLQRWCRAKQMGLEPPPEVWQVLKTHPGDPRFQCSLWHLYPL
notes: DNA polymerase delta subunit 4 POLD4/p12, human; Expressed from a cassette with self-cleaving T2A peptides; A residue of the T2A probably stays on its N-terminus (my surmise); also called p12; source: Sf9 insect cells, baculovirus co-infection (POLD2-T2A-POLD3-T2A-POLD4 cassette), in lysate; co-purified with Flag-POLD1

Legend:
[1] = target: T1, N-terminally Flag-tagged POLD1 C1076S; experiment: pull-down; Flag-pull down (Flag-M2 agarose) from lysate of Sf9 cells co-expressing Flag-POLD1 variant, POLD2, POLD3, POLD4 and untagged PCNA; 50 mM Tris-HCl pH 8.0, 200 mM NaCl, 0.25% NP-40, 4°C; SDS-PAGE with protein stain; settings: partners not purified
[2] = target: T2, N-terminally Flag-tagged POLD1 …; experiment: as above; settings: partners not purified

Binder	binding result [1]	binding result [2]
B1	binds	
B2	binds	binds
B3	binds	binds

Reference: article PMC6613617, “Human DNA polymerase delta requires an iron–sulfur cluster for high-fidelity DNA synthesis” (Life Science Alliance, 2019)
